From publication PMC8686072

Target: DCLK1 KD (DCLK1 kinase domain lacking the inhibitory C-terminal tail) (human) (UniProt O15075)
Assay: SPR

UniProt O15075, sequence (O15075 390-647): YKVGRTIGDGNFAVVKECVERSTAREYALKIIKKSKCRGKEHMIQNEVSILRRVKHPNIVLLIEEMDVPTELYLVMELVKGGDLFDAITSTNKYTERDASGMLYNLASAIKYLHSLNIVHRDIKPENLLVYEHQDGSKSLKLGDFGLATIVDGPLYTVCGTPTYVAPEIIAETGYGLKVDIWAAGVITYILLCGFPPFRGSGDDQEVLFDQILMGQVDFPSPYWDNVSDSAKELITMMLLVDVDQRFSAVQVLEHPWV

Kd: 155 µM
Substance: DCLK1 AID peptide (C-terminal autoinhibitory domain of DCLK1 isoform 2)
